# From patent US20250090676A1 (SUTRO BIOPHARMA, published 2025)
# B1: SRP1848-A01 (antibody, V domains shown)
# VH: EVQLVESGGGLVQPGGSLRLSCAASGFNITRYSIHWVRQAPGKGLEWVAGILPESGGTSYADSVKGRFTISADTSKNTAYLQMNSLRAEDTAVYYCARHIYPWDWFSNYVLDYWGQGTLVTVSS
# VL: not shown
# notes: HC variant paired with trastuzumab LC, cell-free expressed, HIS- and FLAG-tagged; also called Antibody 1
# B2: SRP1848-D10 (antibody, V domains shown)
# VH: EVQLVESGGGLVQPGGSLRLSCAASGFNISRNSIHWVRQAPGKGLEWVGWISPNDGTTDYADSVKGRFTISADGSKNTAYLQMNSLRAEDTAVYYCARGAWSWRSGYGYYIDYWGQGTLVTVSS
# VL: not shown
# notes: IgG with common trastuzumab LC, cell-free expressed, HIS- and FLAG-tagged; also called Antibody 30
# B3: SRP1848-E02 (antibody, V domains shown)
# VH: EVQLVESGGGLVQPGGSLRLSCAASGFNIGKYSIHWVRQAPGKGLEWVGEIYPNDGNTDYADSVKGRFTISADTSKNTAYLQMNSLRAEDTAVYYCARGSWSWRSGYGYYLDYWGQGTLVTVSS
# VL: not shown
# notes: IgG with common trastuzumab LC, cell-free expressed, HIS- and FLAG-tagged; also called Antibody 32
# B4: SRP1848-F08 (antibody, V domains shown)
# VH: EVQLVESGGGLVQPGGSLRLSCAAGGFNISNHSIHWVRQAPGKGVEWVGEIYPVDGITDYADSVKGRFTISADTSKNTAYLRMNSLRAEDTAVYYCARGSWYWQSGYSYYLDYWGQGTLVTVSS
# VL: not shown
# notes: IgG with common trastuzumab LC, cell-free expressed, HIS- and FLAG-tagged; also called Antibody 43
# B5: SRP1848-E01 (antibody, V domains shown)
# VH: EVQLVESGGGLVQPGGSLRLSCAASGFNITNKYIHWVRQAPGKGLEWVGGITPFDGFTDYADSVKGRFTISADTSKNTAYLQMNSLRAEDTAVYYCARGSWSWPAGYGYYQDYWGQGTLVTVSS
# VL: not shown
# notes: IgG with common trastuzumab LC, cell-free expressed, HIS- and FLAG-tagged; also called Antibody 31
# B6: SRP1848-F07 (antibody, V domains shown)
# VH: EVQLVESGGGLVQPGGSLRLSCAASGFNISNHSIHWVRQAPGKGLEWVGEIYPNDGITDYADSVKGRFTISADTSKNTAYLQMNSLSAEDTAVYYCARGSWDWRSGYSYYLDYWGQGTLVTVSS
# VL: not shown
# notes: IgG with common trastuzumab LC, cell-free expressed, HIS- and FLAG-tagged; also called Antibody 42
# B7: SRP1848-F11 (antibody, V domains shown)
# VH: EVQLVESGGGLVQPGGSLRLSCAASGFNISNNYIHWVRQAPGKGLEWVGGITPIDGNTDYADSVKGRFTISADTSMNTAYLQMNSLRAEDTAVYYCARGSWYWRAGYGYYLDYWGQGALVTVSS
# VL: not shown
# notes: IgG with common trastuzumab LC, cell-free expressed, HIS- and FLAG-tagged; also called Antibody 46
# B8: SRP1848-G03 (antibody, V domains shown)
# VH: EVQLVESGGGLVQPGGSLRLSCAASGFNISTYYIHWVRQAPGKGLEWVGGITPSDGFTDYADSVKGRSTISADTSKNTAYLQMNSLRAEDTAVYYCARGSWSWPSGHGYFLDYWGQGTLVTVSS
# VL: not shown
# notes: IgG with common trastuzumab LC, cell-free expressed, HIS- and FLAG-tagged; also called Antibody 48
# B9: SRP1848-F01 (antibody, V domains shown)
# VH: EVQLVESGGGLVQPGGSLRLSCAASGFNIRTYSIHWVRQAPGKGLEWVGSIFPNDGTTDYADSVKGRFTISADTSKNTAYLQMNSLRAEDTAVYYCARGSWAWRAGYSYYLDYWGQGTLVTVSS
# VL: not shown
# notes: IgG with common trastuzumab LC, cell-free expressed, HIS- and FLAG-tagged; also called Antibody 37
# B10: SRP1848-F10 (antibody, V domains shown)
# VH: EVQLVESGGGLVQPGGSLRLSCAASGFNISNNSIHWVRQAPGKGLEWVGSIFPNDGYTDYADSVKGRFTISADTSKNTAYLQMNSLRAEDTAVYYCARGSWFWRSGYGYYLDYWGQGTLVTVSS
# VL: not shown
# notes: IgG with common trastuzumab LC, cell-free expressed, HIS- and FLAG-tagged; also called Antibody 45
# B11: SRP1848-F02 (antibody, V domains shown)
# VH: EVQLVESGGGLVQPGGSLRLSCAASGFNIRTYSIHWVRQAPGKGLEWVGSIFPNDGTTDYADSVKGRLTISADTSKNTAYLQMNSLRAEDTAVYYCARGSWSWQAGYGYYLDYWGQGTLVTVSS
# VL: not shown
# notes: IgG with common trastuzumab LC, cell-free expressed, HIS- and FLAG-tagged; also called Antibody 38
# B12: SRP1848-F09 (antibody, V domains shown)
# VH: EVQLVESGGGLVQPGGSLRLSCAASGFNISNHYIHWVRQAPGKGLEWVGGISPLDGYTDYADSVKGRFTISADTSKNTAYLQMNSLRAEDTAVYYCARGAWSWRSGYGYYIDYWGQGTLVTVSS
# VL: not shown
# notes: IgG with common trastuzumab LC, cell-free expressed, HIS- and FLAG-tagged; also called Antibody 44
# B13: SRP1848-G01 (antibody, V domains shown)
# VH: EVQLVESGGGLVQPGGSLRLSCAASGFNISRHSIHWVRQAPGKGLEWVGWIAPNDGSTDYADSVKGRFTISADTSKNTAYLQMNSLRAEDTAVYYCARGSWAWRSGYSYFLDYWGQGTLVTVSS
# VL: not shown
# notes: IgG with common trastuzumab LC, cell-free expressed, HIS- and FLAG-tagged; also called Antibody 47
# Molecular target: T1, cynomolgus monkey folate receptor alpha (cynomolgus monkey, UniProt P15328 25-234 (human entry))
# T1 construct: Expressed on the surface of stably transfected CHO cells; also called cyno FolR1; CHO-cyno FolR1
# T1 sequence (P15328 other isoform, or with tags, fused parts or gaps limits assumed): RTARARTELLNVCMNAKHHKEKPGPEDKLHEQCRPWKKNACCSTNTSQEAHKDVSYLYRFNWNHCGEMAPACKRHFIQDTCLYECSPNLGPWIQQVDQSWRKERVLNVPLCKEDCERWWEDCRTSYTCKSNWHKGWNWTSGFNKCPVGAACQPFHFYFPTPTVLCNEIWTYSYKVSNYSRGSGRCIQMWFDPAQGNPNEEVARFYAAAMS
# Experiment: FACS, CHO-cFOLR1 cells
Bmax (MFI),Kd,Binder
22600 MFI,0.44 nM,B1

# Molecular target: T2, human folate receptor alpha (hFOLR1) (human, UniProt P15328 25-234)
# T2 construct: endogenous on FOLR1-positive KB and Igrov1 cells (cell killing); also called human FolR1; FolRα
# T2 sequence (P15328 25-234 limits assumed): as the sequence (P15328 other isoform, or with tags, fused parts or gaps limits assumed) above, with T2I, R4W, K37R, R117Q, P146A, Y171H counted along it
# Experiment: FACS, CHO-hFOLR1 cells;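 also: flow cytometry of serially diluted antibodies binding CHO cells stably expressing the receptor, 60 min on ice, mixed with dye-tagged parental CHO as background control, one-site specific fit with Hill slope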
Bmax (MFI),Kd,Binder
25900 MFI,0.39 nM,B1

# Molecular target: T3, murine folate receptor alpha (mouse, UniProt P35846 25-232)
# T3 construct: Expressed on the surface of stably transfected CHO cells; also called mouse FolR1; CHO-mouse FolR1
# T3 sequence (P35846 25-232 limits assumed): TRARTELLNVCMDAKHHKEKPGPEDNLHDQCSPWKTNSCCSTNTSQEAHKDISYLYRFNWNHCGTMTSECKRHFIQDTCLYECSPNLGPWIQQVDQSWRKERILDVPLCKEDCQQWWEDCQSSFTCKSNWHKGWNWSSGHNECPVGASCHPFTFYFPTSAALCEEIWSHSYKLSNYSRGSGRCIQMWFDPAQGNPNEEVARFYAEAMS
# Experiment: FACS, CHO-mFOLR1 cells;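 also: flow cytometry binding of serially diluted test antibodies to transfected CHO cells on ice, mean fluorescence intensity, parental CHO cells give background, Kd from one-site specific binding fit with Hill slope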
Bmax (MFI),Kd,Binder
16500 MFI,0.8 nM,B1

# Molecular target: T2, human folate receptor alpha (hFOLR1)
# Experiment: cell-based or functional assay
Binder,"Igrov, 2° Antibody Cell Killing, Nb-SC239: EC50","Igrov, 2° Antibody Cell Killing, Nb-SC239: Span","KB, 2° Antibody Cell Killing, Nb-239: EC50","KB, 2° Antibody Cell Killing, Nb-239: Span"
B1,0.015 nM,71%,0.064 nM,94%

# Molecular target: T4, human FOLR1-HIS (human, UniProt P15328 25-233)
# T4 construct: Analyte of the Biacore assay; also called FolRα-ECD; extracellular domain of FOLR1; not shown: HIS tag
# T4 sequence (P15328 25-233 limits assumed): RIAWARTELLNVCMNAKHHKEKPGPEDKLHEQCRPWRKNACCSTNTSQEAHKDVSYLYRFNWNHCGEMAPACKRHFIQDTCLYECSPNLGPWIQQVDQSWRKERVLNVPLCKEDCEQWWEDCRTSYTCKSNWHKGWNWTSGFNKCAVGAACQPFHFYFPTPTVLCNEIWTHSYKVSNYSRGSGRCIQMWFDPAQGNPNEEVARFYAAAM
# Experiment: SPR (Biacore), antibody captured on anti-Fc, human FOLR1-HIS analyte, 25 C
Kd,koff,kon,Binder
4.95 nM,0.00558 s⁻¹,1.13e+06 M⁻¹ s⁻¹,B2
6.21 nM,0.00707 s⁻¹,1.14e+06 M⁻¹ s⁻¹,B3
4.58 nM,0.00272 s⁻¹,594000 M⁻¹ s⁻¹,B4
7.87 nM,0.00522 s⁻¹,664000 M⁻¹ s⁻¹,B5
1.56 nM,0.00249 s⁻¹,1.6e+06 M⁻¹ s⁻¹,B6
4.71 nM,0.0039 s⁻¹,828000 M⁻¹ s⁻¹,B7
1.99 nM,0.00197 s⁻¹,990000 M⁻¹ s⁻¹,B8
3.18 nM,0.00362 s⁻¹,1.14e+06 M⁻¹ s⁻¹,B9
2.83 nM,0.00247 s⁻¹,872000 M⁻¹ s⁻¹,B10
4.49 nM,0.00637 s⁻¹,1.42e+06 M⁻¹ s⁻¹,B11
4.85 nM,0.00679 s⁻¹,1.4e+06 M⁻¹ s⁻¹,B12
5.09 nM,0.00226 s⁻¹,444000 M⁻¹ s⁻¹,B13
